According to publication PMC8494430, “Development of a fluorogenic ADAMTS-7 substrate” (Journal of Enzyme Inhibition and Medicinal Chemistry, 2021):
Read-outs that look alike come from different tables or passages of the source.

T1: ADAMTS-7 (Homo sapiens, UniProt Q9UKP4)
T1 construct: the recombinant construct ADAMTS7-T8, which lacks the C-terminal PLAC domain; made in house
T1 sequence (Q9UKP4 237-1631 limits assumed): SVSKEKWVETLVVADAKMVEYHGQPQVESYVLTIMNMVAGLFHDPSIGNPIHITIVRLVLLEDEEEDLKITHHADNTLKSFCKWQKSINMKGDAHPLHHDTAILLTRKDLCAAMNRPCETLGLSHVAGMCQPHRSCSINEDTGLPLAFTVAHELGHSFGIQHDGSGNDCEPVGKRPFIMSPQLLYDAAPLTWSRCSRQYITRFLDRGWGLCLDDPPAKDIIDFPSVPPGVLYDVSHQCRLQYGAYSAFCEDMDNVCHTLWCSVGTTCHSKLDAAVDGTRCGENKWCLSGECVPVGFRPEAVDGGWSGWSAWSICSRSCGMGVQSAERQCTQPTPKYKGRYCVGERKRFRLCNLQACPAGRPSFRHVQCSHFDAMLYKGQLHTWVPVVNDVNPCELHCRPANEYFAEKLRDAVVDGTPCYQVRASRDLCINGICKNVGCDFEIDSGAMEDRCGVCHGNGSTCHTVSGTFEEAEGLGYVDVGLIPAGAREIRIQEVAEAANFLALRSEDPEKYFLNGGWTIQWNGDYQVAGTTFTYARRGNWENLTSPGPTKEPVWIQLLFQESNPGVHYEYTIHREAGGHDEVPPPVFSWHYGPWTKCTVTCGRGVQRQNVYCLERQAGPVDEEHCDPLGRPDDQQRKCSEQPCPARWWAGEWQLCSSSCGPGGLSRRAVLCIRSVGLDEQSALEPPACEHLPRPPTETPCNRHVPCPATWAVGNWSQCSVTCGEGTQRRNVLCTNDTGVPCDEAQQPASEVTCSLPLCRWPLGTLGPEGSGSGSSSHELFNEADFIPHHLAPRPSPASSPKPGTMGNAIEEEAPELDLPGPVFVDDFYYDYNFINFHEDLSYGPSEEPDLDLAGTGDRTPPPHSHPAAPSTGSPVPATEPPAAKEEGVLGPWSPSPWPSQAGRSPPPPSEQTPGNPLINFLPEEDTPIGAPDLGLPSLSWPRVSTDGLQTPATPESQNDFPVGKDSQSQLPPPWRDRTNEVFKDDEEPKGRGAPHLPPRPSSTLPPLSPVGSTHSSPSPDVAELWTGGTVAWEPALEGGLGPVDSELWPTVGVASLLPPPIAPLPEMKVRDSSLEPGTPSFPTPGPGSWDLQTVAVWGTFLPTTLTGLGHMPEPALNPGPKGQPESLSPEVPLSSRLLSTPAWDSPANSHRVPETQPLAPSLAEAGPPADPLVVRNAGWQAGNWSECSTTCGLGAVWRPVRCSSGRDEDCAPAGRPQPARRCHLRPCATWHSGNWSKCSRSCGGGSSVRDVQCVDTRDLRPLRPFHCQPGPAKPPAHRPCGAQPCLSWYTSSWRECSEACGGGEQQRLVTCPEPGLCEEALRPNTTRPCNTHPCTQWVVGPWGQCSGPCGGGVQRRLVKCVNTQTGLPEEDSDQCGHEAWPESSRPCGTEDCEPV


Columns and labels:
[1] = Appearance of solution upon dilution of peptide in assay buffer (solubility); assay type: physicochemical; conditions: 10 mM DMSO stock diluted in assay buffer
Protocol: The cleavage sites ^193Arg↓Ala^194 and ^195Glu↓Ala^196 were chosen to design the FRET substrate ATS7FP0 (Table 1). This peptide covers residues Ala^188-Ala^198 in LTBP4S and contains a FAM/TAMRA fluorophore/quencher pair. The quencher is covalently linked to the ε amino group of an extra C-terminal lysine residue. Stock solutions were routinely prepared at 10 mM in DMSO and stored at −80 °C. […] This was most likely due to the high content in hydrophobic amino acids of this peptide, which added to the hydrophobicity of the fluorophore/quencher pair. Nevertheless, ATS7FP0 generated fluorescence upon cleavage by ADAMTS-7 (Figure 2(A)). With the aim to improve both solubility and cleavage rate by ADAMTS-7, seven additional peptides were designed using the sequence of ATS7FP0 as a starting point. The N-terminal alanine residue present in ATS7FP0 was removed to generate peptide ATS7FP7 with a reduced aliphatic index (Table 1). […] To assess the effect of a P4′ proline residue on the cleavage rate, peptide ATS7FP7 was modified to generate ATS7FP8. […] Since we also determined that ADAMTS-7 prefers arginine in P1 (Figure 1(D)), we mutated one alanine residue in the parental sequence into arginine with the aim to improve both cleavage rate and hydrophilicity, thus generating peptide ATS7FP3. […]

[2] = biological target: ADAMTS7-T8 (recombinant human ADAMTS-7 construct lacking the C-terminal PLAC domain) (human) (UniProt Q9UKP4)
Chain of ADAMTS7-T8 (recombinant human ADAMTS-7 construct lacking the C-terminal PLAC domain) (human) (Q9UKP4 28-1686): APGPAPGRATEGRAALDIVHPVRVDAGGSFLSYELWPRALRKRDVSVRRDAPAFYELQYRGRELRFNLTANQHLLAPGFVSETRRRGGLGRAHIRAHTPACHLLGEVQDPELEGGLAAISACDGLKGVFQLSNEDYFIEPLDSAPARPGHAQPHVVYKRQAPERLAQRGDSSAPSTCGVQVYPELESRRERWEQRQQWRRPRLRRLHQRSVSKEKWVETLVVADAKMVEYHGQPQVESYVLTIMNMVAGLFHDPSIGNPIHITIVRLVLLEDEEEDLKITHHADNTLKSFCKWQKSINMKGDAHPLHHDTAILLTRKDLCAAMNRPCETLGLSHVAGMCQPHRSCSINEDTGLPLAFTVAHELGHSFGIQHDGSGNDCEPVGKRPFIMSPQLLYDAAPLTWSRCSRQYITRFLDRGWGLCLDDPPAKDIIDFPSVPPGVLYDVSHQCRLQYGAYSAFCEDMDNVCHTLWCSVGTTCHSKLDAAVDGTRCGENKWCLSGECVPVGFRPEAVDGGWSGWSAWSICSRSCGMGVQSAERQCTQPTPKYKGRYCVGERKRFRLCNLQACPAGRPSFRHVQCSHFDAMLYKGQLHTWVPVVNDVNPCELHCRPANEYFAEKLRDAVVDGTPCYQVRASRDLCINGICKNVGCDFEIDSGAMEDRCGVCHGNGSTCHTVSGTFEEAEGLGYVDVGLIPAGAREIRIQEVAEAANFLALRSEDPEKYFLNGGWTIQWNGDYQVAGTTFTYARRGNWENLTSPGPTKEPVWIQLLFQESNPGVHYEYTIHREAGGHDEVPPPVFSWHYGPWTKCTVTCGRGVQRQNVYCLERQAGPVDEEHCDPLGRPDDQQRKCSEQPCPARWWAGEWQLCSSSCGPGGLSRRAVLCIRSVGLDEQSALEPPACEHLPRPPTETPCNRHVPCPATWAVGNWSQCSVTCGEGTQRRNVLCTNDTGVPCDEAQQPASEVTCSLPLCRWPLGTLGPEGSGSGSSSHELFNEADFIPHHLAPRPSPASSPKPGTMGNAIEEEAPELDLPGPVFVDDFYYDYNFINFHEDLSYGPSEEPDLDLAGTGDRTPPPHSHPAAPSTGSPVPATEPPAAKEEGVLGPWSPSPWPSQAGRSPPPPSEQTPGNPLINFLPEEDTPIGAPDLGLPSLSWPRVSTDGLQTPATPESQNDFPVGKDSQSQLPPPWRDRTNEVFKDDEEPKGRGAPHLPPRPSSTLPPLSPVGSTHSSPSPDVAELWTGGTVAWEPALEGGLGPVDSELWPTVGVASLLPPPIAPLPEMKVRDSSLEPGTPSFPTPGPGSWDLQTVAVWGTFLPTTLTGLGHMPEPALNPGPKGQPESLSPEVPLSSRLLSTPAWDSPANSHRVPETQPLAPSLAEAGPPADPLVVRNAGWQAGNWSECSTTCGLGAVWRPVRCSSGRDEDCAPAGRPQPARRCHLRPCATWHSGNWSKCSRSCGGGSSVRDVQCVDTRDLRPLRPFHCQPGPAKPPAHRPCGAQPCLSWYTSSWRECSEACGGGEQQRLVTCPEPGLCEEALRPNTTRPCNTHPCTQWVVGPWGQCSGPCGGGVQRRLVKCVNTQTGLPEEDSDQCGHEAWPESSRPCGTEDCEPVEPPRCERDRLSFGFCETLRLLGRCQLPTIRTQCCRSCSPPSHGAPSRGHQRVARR

ADAMTS-7 [3] = biological target: T1, ADAMTS-7; experiment: Inhibition of ADAMTS-7 cleavage of FRET substrate ATS7FP7; assay type: biochemical
Protocol: All enzyme assays were conducted in TNC-B buffer (50 mM Tris- HCl, pH 7.5, 150 mM NaCl, 10 mM CaCl2, and 0.02% NaN3) at 37 °C in 384 well plates (Cat. No: 784900, Greiner Bio-One, Austria). To avoid the formation of inhibitor or peptide aggregates, the detergent Brij-35 (0.05%) was added to TNC-B[13]. For inhibition studies, stock solutions of chemical compounds were prepared in dimethyl sulfoxide (DMSO) (10 mM). […] Blank samples were prepared using buffer only and the rate of cleavage for blank reactions was subtracted from the rates measured in the presence of enzyme. Upon addition of the indicated ADAMTS-7 FRET substrates (40 µM), the fluorescence was measured immediately using a FLUOstar Omega microplate reader (BMG Labtech, Germany) with an excitation filter wavelength of 485 nm and an emission filter wavelength of 520 nm.

ADAMTS-7 [4] = biological target: T1, ADAMTS-7; conditions: read-out: Ki app for inhibition of cleavage of LTBP4; cited from earlier work
[5] = biological target: ADAMTS7-T8 (recombinant human ADAMTS-7 construct lacking the C-terminal PLAC domain) (human) (UniProt Q9UKP4); experiment: enzyme inhibition assay (cleavage of a FRET peptide); ADAMTS-7 (5 nM) pre-incubated 1 h at 37 °C with TIMP-4, then ATS7FP7 (40 µM) added; TNC-B buffer (50 mM Tris-HCl pH 7.5, 150 mM NaCl, 10 mM CaCl2, 0.02% NaN3) with 0.05% Brij-35; 384 well plates; apparent Ki from the Morrison equation for tight binding inhibitors

| appearance of solution upon dilution in the assay buffer (solubility) [1] | IC50 of inhibition of ADAMTS-7 cleavage of the FRET peptide substrate ATS7FP7 [2] [nM] | Ki (ADAMTS-7 [3]; 5 nM ADAMTS-7, Morrison equation for tight binding inhibitors, read-out: Ki app (ATS7FP7 substrate)) [nM] | IC50 (ADAMTS-7 [3]; ATS7FP7 40 μM, 1 h preincubation, 37 °C) [nM] | Ki [5] [nM] | Molecule | Ki (ADAMTS-7 [4]) [nM] |
| --- | --- | --- | --- | --- | --- | --- |
| non-homogenous |  |  |  |  | Ala-Glu-Ala-Ala-Ala-Arg↓Ala-Glu↓Ala-Ala-Ala-Lys [ATS7FP0] |  |
|  | 18 | 3.2 ± 1 | 18 ± 6 | 3.2 | Recombinant human tissue inhibitor of metalloproteinase (TIMP)-4 (natural protein) CSCAPAHPQQHICHSALVIRAKISSEKVVPASADPADTEKMLRYEIKQIKMFKGFEKVKDVQYIYTPFDSSLCGVKLEANSQKQYLLTGQVLSDGKVFIHLCNYIEPWEDLSLVQRESLNHHYHLNCGCQITTCYTVPCTISAPNECLWTDWLLERKLYGYQAQHYVCMKHVDGTCSWYRGHLPLRKEFVDIVQP | 13 |
